Source: patent publication US20070243589A1 (Pfizer, published 2007)

Columns and labels:
[1] = molecular target: T1, biotinylated IL-22 with an N-terminal His/FLAG tag (bio.IL-22H/F) (human, UniProt Q9GZX6 34-179, biotinylated (site not stated)); assay: biotinylated IL-22 binding IL-22 receptor complex competition assay, purified scFv, fully germlined
T1 construct: not shown: N-terminal His/FLAG tag
T1 sequence: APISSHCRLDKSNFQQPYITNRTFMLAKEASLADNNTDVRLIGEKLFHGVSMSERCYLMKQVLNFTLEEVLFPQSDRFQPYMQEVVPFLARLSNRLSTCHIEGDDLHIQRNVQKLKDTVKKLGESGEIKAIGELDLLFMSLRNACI
Procedure: (§1) Microtiter plates were coated with an IL-22 receptor complex antibody (1 μg/ml in PBS), and incubated for 1.5 hours at room temperature. Plates were washed three times in PBST, and blocked for 1 hour at room temperature with 2% MPBS. After a further 3 washes, diluted cell conditioned medium containing an IL-22 receptor complex was added and incubated overnight at 4° C. Crude scFv supernatants were prepared as described above. The following day, 25 μl of diluted scFv sample and 25 μl of bio.IL-22H/F (6 ng/ml) were added to the washed plates, and incubated for 1.5 hours at room temperature. Plates were washed 3 times in PBST, then binding of bio.IL-22H/F to the IL-22 receptor complex was detected with Europium-Streptavidin and the DELFIA® reagent kit (PerkinElmer). Time Resolved Fluorescence was measured using a Victor 2™ Plate Reader (Perkin Elmer).
(§2) Sequence data for the six parent clones was used to identify the nearest germline sequence for the heavy and light chain of each clone. Appropriate mutations were made using standard site directed mutagenesis techniques with the appropriate mutagenic primers. Mutation of sequences was confirmed by sequence analysis. Purified scFv from the germlined parent clones were tested in the biotinylated IL-22 binding IL-22 receptor complex competition assay as described earlier, in order to establish the clone potency as measured by IC₅₀ values in the assay.

[2] = molecular target: T1, biotinylated IL-22 with an N-terminal …; assay: IL-22 receptor complex inhibition assay (bio.IL-22H/F binding to IL-22 receptor complex, DELFIA), IgG
Procedure: Potency of purified IgG was verified in the biochemical IL-22 receptor complex inhibition assay as described below. IgG concentrations were titrated in order to obtain potency values.
as §1

[3] = molecular target: T1, biotinylated IL-22 with an N-terminal …; assay: DELFIA competition assay: scFv titrated against bio.IL-22H/F binding to the captured IL-22 receptor complex
Procedure: (§3) Both the IL-22/IL-22R binding assay (described above) and the IL-22/IL-22 receptor complex assay (described below) were used. ScFv concentrations were titrated in order to establish the clone potencies as measured by assay IC₅₀ values. These were determined using GraphPad Prism software and four-parameter logistic equation curve fitting.
as §1

[4] = molecular target: T1, biotinylated IL-22 with an N-terminal …; assay: IL-22 receptor complex inhibition assay (bio.IL-22H/F binding to IL-22 receptor complex, DELFIA), scFv
Procedure: as §3, §1

[5] = molecular target: T1, biotinylated IL-22 with an N-terminal …; assay: biotinylated IL-22 binding IL-22 receptor complex competition assay, purified scFv, parent
Procedure: as §1, §2

[6] = molecular target: T1, biotinylated IL-22 with an N-terminal …; assay: DELFIA competition assay: scFv titrated against bio.IL-22H/F binding to the captured IL-22 receptor complex; remark: listed apart in the source
Procedure: as §1
Purified scFv from positive clones identified from the screening were tested in the DELFIA® IL-22 receptor complex competition assay as described above. A titration of scFv concentrations was used in order to establish the clone potency as measured by IC₅₀ values in the assay. Fourteen optimized clones were designated 097D09, 062A09, 062G05, 087B03, 367D04, 368D04, 166B06, 166G05, 375G06, 376B10, 354A08, 355B06, 355E04, and 356A11.

Binder	IC50 [1] [nM]	IC50 [3] [nM]	IC50 [4] [nM]	IC50 [5] [nM]	IC50 [6] [nM]	further results
GIL68 scFv, fully germlined (scFv) scFv: QVQLVQSGAEVKKPGASVKVSCKASGYTFSDYYIHWVRQAPGQGLEWMGWVNPDTGGTRYAQKFQGRVTMTRDMSISTAYMELSRLRSDDTAVYYCARDLTGFDPFDIWGQGTLVTVSSGGGGSGGGGSGGGGSASSVLTQPPSVSVAPGKTARITCGGNNFRNKRVHWYQQKPGQAPVLVIYYDSDRPSGIPERFSGSRSGNTATLTISRVEAGDEADYYCQVWDSSTDRPLFGGGTKLTVLGA	14					
GIL16 IgG (non-germlined parent) (antibody, V domains shown, Human IgG4 heavy chain constant domain) VH: QVQLVESGAEVKKPGASVKVSCKASGYTFTSYGISWVRQAPGQGLEWMGWISAYTGNTNYAQKFQGRVTMTTDTSTSTAYMELRSLRSDDTAVYYCARDRGYYDAFDIWGQGTLVTVSS VL: DIQMTQSPSTLSASIGDRVTITCRASEGIYHWLAWYQQKPGKAPKLLIYKASSLASGAPSRFSGSGSGTDFTLTISSLQPDDFATYYCQQYSNYPLTFGGGTKLEIKR						IC50 [2]: 10 nM
GIL16 scFv, fully germlined (scFv) scFv: QVQLVQSGAEVKKPGASVKVSCKASGYTFTSYGISWVRQAPGQGLEWMGWISAYTGNTNYAQKFQGRVTMTTDTSTSTAYMELRSLRSDDTAVYYCARDRGYYDAFDIWGQGTLVTVSSGGGGSGGGGSGGGGSDIQMTQSPSTLSASVGDRVTITCRASEGIYHWLAWYQQKPGKAPKLLIYKASSLASGVPSRFSGSGSGTEFTLTISSLQPDDFATYYCQQYSNYPLTFGGGTKVEIKRA	38					
GIL16 scFv (non-germlined parent) (scFv) scFv: QVQLVESGAEVKKPGASVKVSCKASGYTFTSYGISWVRQAPGQGLEWMGWISAYTGNTNYAQKFQGRVTMTTDTSTSTAYMELRSLRSDDTAVYYCARDRGYYDAFDIWGQGTLVTVSSGGGGSGGGGSGGGGSDIQMTQSPSTLSASIGDRVTITCRASEGIYHWLAWYQQKPGKAPKLLIYKASSLASGAPSRFSGSGSGTDFTLTISSLQPDDFATYYCQQYSNYPLTFGGGTKLEIKRAAA		55	49	44	25.9	
GIL92 scFv (non-germlined parent) (scFv) scFv: QVQLVQSGAEVKKPGASVKVSCKASGYTFTDYYMHWVRQAPGQGLEWVGWINPYTGGAFYAQKFRGRVTMTRDTSINTAYMELSRLGSDDTAVYYCAREPEKFDFWGGDNWGRGTMVTVSSGGGGSGGGGSGGGGSAQAVLTQPSSVSGAPGQRVTISCTGSSSNIGAGYGVHWYQQLPGTAPKLLIYGNSNRPSGVPDRFSGSKSGTSASLAITGLQAEDEADYYCQSYDSSLSGYVFGTGTQLTVLSAAA		40	16	18	15.3	
GIL60 IgG (non-germlined parent) (antibody, V domains shown, Human IgG4 heavy chain constant domain) VH: EVQLVESGGGVVRPGGSLRLSCAASGFTFDDYGMNWVRQAPGKGLEWVSGVNWNGGTRDYAASVKGRFTISRDNAKNSLYLQMNSLRAEDTALYYCARGWYSGSFYYFGYWGRGTLVTVSS VL: QAVLTQPSSVSGSPGQSITISCTGASGDVGAYNFVSWYQQHPGKTPKLIIYDVNKRPSGVSNRFSGSKSGNTASLTISGLQAEDESDYYCSSYTSTFSVVFGGGTKVTVLG						IC50 [2]: 15 nM
GIL60 scFv, fully germlined (scFv) scFv: EVQLVESGGGVVRPGGSLRLSCAASGFTFDDYGMNWVRQAPGKGLEWVSGVNWNGGTRDYAASVKGRFTISRDNAKNSLYLQMNSLRAEDTALYHCARGWYSGSFYYFGYWGRGTLVTVSSGGGGSGGGGSGGGGSAQAALTQPASVSGSPGQSITISCTGASGDVGAYNFVSWYQQHPGKAPKLIIYDVNKRPSGVSNRFSGSKSGNTASLTISGLQAEDEADYYCSSYTSTFSVVFGGGTKLTVLGA	82					
GIL60 scFv (non-germlined parent) (scFv) scFv: EVQLVESGGGVVRPGGSLRLSCAASGFTFDDYGMNWVRQAPGKGLEWVSGVNGNGGTRDYAASVKGRFTISRDNAKNSLYLQMNSLRAEDTALYYCARGWYSGSFYYFGYWGRGTLVTVSSGGGGSGGGGSGGGGSAQAVLTQPSSVSGSPGQSITISCTGASGDVGAYNFVSWYQQHPGKTPKLIIYDVNKRPSGVSNRFSGSKSGNTASLTISGLQAEDESDYYCSSYTSTFSVVFGGGTKVTVLGAA		60	43	51	30.8	
GIL92 scFv, fully germlined (scFv) scFv: QVQLVQSGAEVKKPGASVKVSCKASGYTFTDYYMHWVRQAPGQGLEWVGWINPYTGGAFYAQKFRGRVTMTRDTSISTAYMELSRLRSDDTAVYYCAREPEKFDFWGGDNWGRGTLVTVSSGGGGSGGGGSGGGGSAQAVLTQPPSVSGAPGQRVTISCTGSSSNIGAGYGVHWYQQLPGTAPKLLIYGNSNRPSGVPDRFSGSKSGTSASLAITGLQAEDEADYYCQSYDSSLSGYVFGGGTQLTVLSA	40					
GIL01 scFv, fully germlined (scFv) scFv: QVQLVESGGGLVKPGGSLRLSCAASGFTFSDYYMSWIRQAPGKGLEWVSAISGSGGSTYYADSVKGRITISRDNAKNSLYLQMNSLRAEDTAVYYCARGLWVWDPLDYWGRGTLVTVSSGGGGSGGGGSGGGGSDIQMTQSPSTLSASVGDRVTITCRASEGIYHWLAWYQQKPGKAPKLLIYKASSLASGVPSRFSGSGSGTDFTLTISSLQPDDFATYYCQQYSNYPLTFGGGTKVEIKRA	143					
GIL01 scFv (non-germlined parent) (scFv, also called GIL 1) scFv: EVQLVESGGGLVTPGGSLRLSCAASGFTFSDYYMSWIRQAPGRGLEWVSAISGSGGSTYYADSVKGRITISRDNAKNSLYLQMSSLRSEDTAVYYCARGLWVWDPLDYWGRGTLVTVSSGGGGSGGGGSGGGGSDIQMTQSPSTLSASIGDRVTITCRASEGIYHWLAWYQQKPGKAPKLLIYKASSLASGAPSRFSGSGSGTDFTLTISSLQPDDFATYYCQQYSNYPLTFGGGTKLEIKRAAA		95	104	124	129	
